Tests used:
[1] = target: SIRPα variant (10), three domain construct with rat CD4d3+4 tag (human); assay: SPR; BIAcore 3000; SIRP proteins captured through their rat CD4d3+4 tag on the rat CD4 MAb OX68 immobilised on a CM5 chip (about 1000 RU); human CD47 at 22 uM passed over; RU of the control rat CD4 domains 3 and 4 subtracted
[2] = target: SIRPα variant (10), three domain construct with rat CD4d3+4 tag (human); assay: SPR; as a1, CD47 at 22 uM passed over again after OX130 MAb had been passed over the immobilised SIRP proteins

SIRPα variant (10), three domain construct with rat CD4d3+4 tag (human), sequence (main, as listed by the source mutant): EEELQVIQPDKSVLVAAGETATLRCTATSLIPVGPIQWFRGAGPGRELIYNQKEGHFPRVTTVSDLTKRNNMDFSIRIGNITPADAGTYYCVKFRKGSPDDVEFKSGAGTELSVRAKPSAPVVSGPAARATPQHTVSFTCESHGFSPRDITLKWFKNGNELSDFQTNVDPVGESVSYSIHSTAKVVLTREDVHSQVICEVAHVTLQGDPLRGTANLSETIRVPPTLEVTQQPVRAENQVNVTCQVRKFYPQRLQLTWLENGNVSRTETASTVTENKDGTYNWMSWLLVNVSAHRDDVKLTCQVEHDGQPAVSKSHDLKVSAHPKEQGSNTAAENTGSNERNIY

Substance: Human CD47 (from UniProt Q08722 19-141) (ligand)
- response units (RU) [1]: 280 RU
- response units (RU) after OX130 injection [2]: 247 RU

— article PMC4770912
